From patent US20170253933A1, “COMPOSITIONS AND METHODS FOR TREATING AND DIAGNOSING CHEMOTHERAPY-RESISTANT CANCERS” (Genentech, Inc., priority 2014, published 2017)
“Also recorded” adds a separate entry of the source.

Test system: ES-2 cells
Assay: Chemotherapy resistance of ES-2 cells on protein-coated plates (Cell-Titre Glo viability, % growth benefit)
Assay type: cell-based
Description: (A) Increased desmoplasia is correlated with POSTN expression and primary chemotherapy-resistance. Representative high magnification images of hematoxylin and eosin (H&E) staining of tumor specimens (upper panels) and POSTN ISH images (lower panel) are shown. Desmoplasia scores were defined as follows: 0=no desmoplasia, 1=few scattered desmoplastic foci abutting cancer cells, 2=several desmoplastic foci abutting cancer cells or moderate confluent (wider) desmoplasia, but not present throughout the section, 3=desmoplastic reaction throughout section, associated with most cancer cells. Labels: DS=desmoplastic stroma, NS=normal stroma, TC =tumor cells. Arrows point to examples of tumor cells. A dotted line encircles a region containing tumor cells. Size bars, 100 μm. (B) Summary of desmoplasia scores in 21 Plat-S primary, 18 Plat-R primary, and 21 Plat-R recurrent tumor specimens; (C) POSTN promotes chemotherapy-resistance in chemotherapy-sensitive ES2 ovarian cells in vitro. 96-well plates were coated with recombinant protein FN1 or POSTN or left uncoated before cells were plated into each well. 10 μM carboplatin or 10 nM taxol was then added to each well on the next day. Cell-Titre Glo® reagents were added at 72 hours after compound treatment to measure cell viability. The viability in coated wells was then compared with viability in uncoated wells to calculate % growth benefit. […]

B1: POSTN: recombinant full-length POSTN (Cat #3548-F2, R&D Systems) used to coat culture plates (protein, UniProt Q15063 22-836, looked up)
Periostin: NNHYDKILAHSRIRGRDQGPNVCALQQILGTKKKYFSTCKNWYKKSICGQKTTVLYECCPGYMRMEGMKGCPAVLPIDHVYGTLGIVGATTTQRYSDASKLREEIEGKGSFTYFAPSNEAWDNLDSDIRRGLESNVNVELLNALHSHMINKRMLTKDLKNGMIIPSMYNNLGLFINHYPNGVVTVNCARIIHGNQIATNGVVHVIDRVLTQIGTSIQDFIEAEDDLSSFRAAAITSDILEALGRDGHFTLFAPTNEAFEKLPRGVLERIMGDKVASEALMKYHILNTLQCSESIMGGAVFETLEGNTIEIGCDGDSITVNGIKMVNKKDIVTNNGVIHLIDQVLIPDSAKQVIELAGKQQTTFTDLVAQLGLASALRPDGEYTLLAPVNNAFSDDTLSMDQRLLKLILQNHILKVKVGLNELYNGQILETIGGKQLRVFVYRTAVCIENSCMEKGSKQGRNGAIHIFREIIKPAEKSLHEKLKQDKRFSTFLSLLEAADLKELLTQPGDWTLFVPTNDAFKGMTSEEKEILIRDKNALQNIILYHLTPGVFIGKGFEPGVTNILKTTQGSKIFLKEVNDTLLVNELKSKESDIMTTNGVIHVVDKLLYPADTPVGNDQLLEILNKLIKYIQIKFVRGSTFKEIPVTVYTTKIITKVVEPKIKVIEGSLQPIIKTEGPTLTKVKIEGEPEFRLIKEGETITEVIHGEPIIKKYTKIIDGVPVEITEKETREERIITGPEIKYTRISTGGGETEETLKKLLQEEVTKVTKFIEGGDGHLFEDEEIKRLLQGDTPVRKLQANKKVQGSRRRLREGRSQ
ES-2 cells on coated plates, in the absence of chemotherapy treatment
  cell growth with coating alone: small increase in cell growth
ES-2 ovarian cancer cells on coated plates, 10 μM carboplatin or 10 nM paclitaxel, viability at 72 hours
  resistance to carboplatin or paclitaxel treatment (viability in coated wells vs uncoated wells, % growth benefit): became resistant to carboplatin and paclitaxel treatment; also recorded: significantly more resistant to carboplatin or paclitaxel treatment
